The numbers were not newly measured in article PMC9458874, which cites them from elsewhere.

This series addresses HAB1 (Arabidopsis thaliana) (UniProt Q9CAJ0).
Sequence of UniProt Q9CAJ0 (Q9CAJ0 23-511): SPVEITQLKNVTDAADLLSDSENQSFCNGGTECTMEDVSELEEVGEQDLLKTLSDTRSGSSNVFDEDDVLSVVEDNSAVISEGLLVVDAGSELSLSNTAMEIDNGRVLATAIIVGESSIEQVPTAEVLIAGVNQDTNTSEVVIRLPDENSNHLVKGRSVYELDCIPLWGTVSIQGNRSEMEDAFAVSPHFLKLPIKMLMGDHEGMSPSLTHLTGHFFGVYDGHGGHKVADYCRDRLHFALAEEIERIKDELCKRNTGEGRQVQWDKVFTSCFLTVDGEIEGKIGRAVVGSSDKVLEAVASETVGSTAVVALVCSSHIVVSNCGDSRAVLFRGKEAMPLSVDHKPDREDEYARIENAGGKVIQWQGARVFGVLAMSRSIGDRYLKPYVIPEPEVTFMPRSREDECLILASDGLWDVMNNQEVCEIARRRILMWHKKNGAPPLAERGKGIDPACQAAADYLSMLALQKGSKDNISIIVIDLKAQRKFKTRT

In general, Kd refers to a measure of binding affinity in units of concentration. For the substance PYR1 (from UniProt O49686), the Kd was 30 nM.
